Reference: PMC10397247

Legend:
[1] = molecular target: T1, P5SC1; test: two-hybrid library CC1;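 note: natural log of median RNA to DNA barcode read ratio; higher means stronger binding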
T1 chain: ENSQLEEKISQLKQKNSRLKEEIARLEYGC

[2] = molecular target: T2, P5SC2; test: two-hybrid library CC1; details: mean of both orientations;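 note: natural log of median RNA to DNA barcode read ratio; higher means stronger binding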
T2 chain: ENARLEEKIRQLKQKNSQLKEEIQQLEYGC

[3] = molecular target: T3, P5mS; test: two-hybrid library CC1; details: mean of both orientations;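 note: natural log of median RNA to DNA barcode read ratio; higher means stronger binding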
T3 chain: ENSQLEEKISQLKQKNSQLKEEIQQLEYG

[4] = molecular target: T4, P6SC1; test: two-hybrid library CC1; details: mean of both orientations;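 note: natural log of median RNA to DNA barcode read ratio; higher means stronger binding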
T4 chain: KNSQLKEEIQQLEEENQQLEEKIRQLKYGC

[5] = molecular target: T5, P6SC2; test: two-hybrid library CC1; details: mean of both orientations;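 note: natural log of median RNA to DNA barcode read ratio; higher means stronger binding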
T5 chain: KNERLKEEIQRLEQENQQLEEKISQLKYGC

[6] = molecular target: T6, P6; test: two-hybrid library CC1; details: mean of both orientations;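 note: natural log of median RNA to DNA barcode read ratio; higher means stronger binding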
T6 chain: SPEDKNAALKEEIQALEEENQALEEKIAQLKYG

[7] = molecular target: T7, P6mS; test: two-hybrid library CC1; details: mean of both orientations
T7 chain: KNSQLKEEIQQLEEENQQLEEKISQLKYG

[8] = molecular target: T8, P7; test: two-hybrid library CC1; details: mean of both orientations
T8 chain: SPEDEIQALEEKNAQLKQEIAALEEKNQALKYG

[9] = molecular target: T9, P7mS; test: two-hybrid library CC1; details: mean of both orientations
T9 chain: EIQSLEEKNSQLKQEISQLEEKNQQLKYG

[10] = molecular target: T10, P8; test: two-hybrid library CC1; details: mean of both orientations
T10 chain: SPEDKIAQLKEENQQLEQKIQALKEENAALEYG

[11] = molecular target: T11, P8mS; test: two-hybrid library CC1; details: mean of both orientations
T11 chain: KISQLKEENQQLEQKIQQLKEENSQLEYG

[12] = molecular target: T12, P9; test: two-hybrid library CC1; details: mean of both orientations
T12 chain: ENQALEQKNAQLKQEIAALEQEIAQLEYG

[13] = molecular target: T13, P6SHb; test: two-hybrid library CCNG1
T13 chain: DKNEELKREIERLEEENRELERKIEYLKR

[14] = molecular target: T14, P7SHb; test: two-hybrid library CCNG1
T14 chain: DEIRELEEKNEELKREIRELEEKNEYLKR

[15] = molecular target: T15, P8SHb; test: two-hybrid library CCNG1
T15 chain: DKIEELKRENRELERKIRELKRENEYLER

[16] = molecular target: T16, P9SHb; test: two-hybrid library CCNG1
T16 chain: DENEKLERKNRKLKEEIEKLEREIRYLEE

[17] = molecular target: T17, 4H235-AA; test: two-hybrid library CCmax
T17 chain: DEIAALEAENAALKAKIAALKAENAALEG

[18] = molecular target: T18, 4H249-AA; test: two-hybrid library CCmax; details: mean of both orientations
T18 chain: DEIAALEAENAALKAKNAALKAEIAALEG

[19] = molecular target: T19, 4H2580-AA; test: two-hybrid library CCmax; details: mean of both orientations
T19 chain: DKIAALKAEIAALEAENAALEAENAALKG

[20] = molecular target: T20, 4H2604-AA; test: two-hybrid library CCmax; details: mean of both orientations
T20 chain: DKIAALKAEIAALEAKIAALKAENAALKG

[21] = molecular target: T21, 4H2621-AA; test: two-hybrid library CCmax; details: mean of both orientations
T21 chain: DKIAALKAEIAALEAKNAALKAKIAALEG

[22] = molecular target: T22, 4H2760-AA; test: two-hybrid library CCmax; details: mean of both orientations
T22 chain: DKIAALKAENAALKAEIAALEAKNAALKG

[23] = molecular target: T23, 4H2774-AA; test: two-hybrid library CCmax; details: mean of both orientations
T23 chain: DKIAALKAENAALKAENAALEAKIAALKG

[24] = molecular target: T24, 4H2903-AA; test: two-hybrid library CCmax; details: mean of both orientations
T24 chain: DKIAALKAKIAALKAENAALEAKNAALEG

[25] = molecular target: T25, 4H2947-AA; test: two-hybrid library CCmax; details: mean of both orientations
T25 chain: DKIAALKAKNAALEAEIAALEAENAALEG

[26] = molecular target: T26, 4H2961-AA; test: two-hybrid library CCmax; details: mean of both orientations
T26 chain: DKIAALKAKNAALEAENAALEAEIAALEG

[27] = molecular target: T27, 4H3049-AA; test: two-hybrid library CCmax; details: mean of both orientations
T27 chain: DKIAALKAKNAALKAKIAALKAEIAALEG

[28] = molecular target: T28, 4H3094-AA; test: two-hybrid library CCmax; details: mean of both orientations
T28 chain: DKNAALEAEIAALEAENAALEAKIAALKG

[29] = molecular target: T29, 4H324-AA; test: two-hybrid library CCmax; details: mean of both orientations
T29 chain: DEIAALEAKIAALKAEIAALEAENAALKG

[30] = molecular target: T30, 4H341-AA; test: two-hybrid library CCmax; details: mean of both orientations
T30 chain: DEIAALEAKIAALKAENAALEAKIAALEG

[31] = molecular target: T31, 4H3449-AA; test: two-hybrid library CCmax; details: mean of both orientations
T31 chain: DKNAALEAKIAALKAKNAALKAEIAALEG

[32] = molecular target: T32, 4H3619-AA; test: two-hybrid library CCmax; details: mean of both orientations
T32 chain: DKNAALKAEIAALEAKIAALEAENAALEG

[33] = molecular target: T33, 4H3629-AA; test: two-hybrid library CCmax; details: mean of both orientations
T33 chain: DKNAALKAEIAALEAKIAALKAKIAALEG

[34] = molecular target: T34, 4H3777-AA; test: two-hybrid library CCmax; details: mean of both orientations
T34 chain: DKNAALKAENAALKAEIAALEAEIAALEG

[35] = molecular target: T35, 4H380-AA; test: two-hybrid library CCmax; details: mean of both orientations
T35 chain: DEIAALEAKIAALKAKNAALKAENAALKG

[36] = molecular target: T36, 4H3915-AA; test: two-hybrid library CCmax; details: mean of both orientations
T36 chain: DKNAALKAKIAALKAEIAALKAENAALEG

[37] = molecular target: T37, 4H3974-AA; test: two-hybrid library CCmax; details: mean of both orientations
T37 chain: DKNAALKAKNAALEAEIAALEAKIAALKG

[38] = molecular target: T38, 4H432-AA; test: two-hybrid library CCmax; details: mean of both orientations
T38 chain: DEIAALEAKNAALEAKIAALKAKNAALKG

[39] = molecular target: T39, 4H446-AA; test: two-hybrid library CCmax; details: mean of both orientations
T39 chain: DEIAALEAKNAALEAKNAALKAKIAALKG

[40] = molecular target: T40, 4H63-AA; test: two-hybrid library CCmax; details: mean of both orientations
T40 chain: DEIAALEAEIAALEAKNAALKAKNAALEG

[41] = molecular target: T41, 4H496-bN; test: two-hybrid library CCNG1
T41 chain: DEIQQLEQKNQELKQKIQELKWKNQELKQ

Question: Which results are given for ENSQLEEKISQLKQKNSRLKEEIARLEYGC [P5SC1]?
Answer: interaction score [1]: -2.92; interaction score [2]: -2.82; interaction score [3]: -2.78; interaction score [4]: 0.372; interaction score [5]: 0.373; interaction score [6]: 0.357; interaction score [7]: 0.307; interaction score [8]: -2.4; interaction score [9]: -2.67; interaction score [10]: -0.893; interaction score [11]: -2.29; interaction score [12]: -2.33

Question: For DKNEELKREIERLEEENRELERKIEYLKR [P6SHb], which interaction score [13] is on record?
Answer: 0.147

Question: And the interaction score [14]?
Answer: 0.946

Question: What about the interaction score [15] of the same binder?
Answer: 0.342

Question: What about the interaction score [16] of the same binder?
Answer: 0.769

Question: With DEIAALEAENAALKAKIAALKAENAALEG [4H235-AA] as the binder, how does the interaction score [17] read?
Answer: -1.14

Question: What about the interaction score [18] of the same binder?
Answer: -1.7

Question: And the interaction score [19]?
Answer: -0.865

Question: What about the interaction score [20] of the same binder?
Answer: -1.14

Question: And the interaction score [21]?
Answer: -0.985

Question: What about the interaction score [22] of the same binder?
Answer: 2.27

Question: What about the interaction score [23] of the same binder?
Answer: 1.48

Question: And the interaction score [24]?
Answer: -1.68

Question: And the interaction score [25]?
Answer: 0.136

Question: And the interaction score [26]?
Answer: -1.27

Question: What about the interaction score [27] of the same binder?
Answer: -0.98

Question: And the interaction score [28]?
Answer: 0.0844

Question: And the interaction score [29]?
Answer: -1.12

Question: What about the interaction score [30] of the same binder?
Answer: -0.261

Question: What about the interaction score [31] of the same binder?
Answer: 0.816

Question: What about the interaction score [32] of the same binder?
Answer: -1.48

Question: And the interaction score [33]?
Answer: -1.09

Question: What about the interaction score [34] of the same binder?
Answer: 0.00925

Question: And the interaction score [35]?
Answer: -1.71

Question: And the interaction score [36]?
Answer: -1.49

Question: What about the interaction score [37] of the same binder?
Answer: -0.571

Question: What about the interaction score [38] of the same binder?
Answer: -0.27

Question: What about the interaction score [39] of the same binder?
Answer: -1.78

Question: And the interaction score [40]?
Answer: -1.28

Question: With DEIQQLEQKNQELKQKIQELKWKNQELKQ [4H496-bN] as the binder, how does the interaction score [41] read?
Answer: -0.0824
